Measured values from IntAct's records for PubMed 21850687.

B1: Thioredoxin-dependent peroxide reductase, mitochondrial (Homo sapiens), P30048 (parent)
chain: MAAAVGRLLRASVARHVSAIPWGISATAALRPAACGRTSLTNLLCSGSSQAKLFSTSSSCHAPAVTQHAPYFKGTAVVNGEFKDLSLDDFKGKYLVLFFYPLDFTFVCPTEIVAFSDKANEFHDVNCEVVAVSVDSHFSHLAWINTPRKNGGLGHMNIALLSDLTKQISRDYGVLLEGSGLALRGLFIIDPNGVIKHLSVNDLPVGRSVEETLRLVKAFQYVETHGEVCPANWTPDSPTIKPSPAASKEYFQKVNQ

Variants of: B1
Details: with lrrk2_human LRRK2, Q5S007
Sequence of lrrk2_human LRRK2, Q5S007 (Q5S007 whole entry): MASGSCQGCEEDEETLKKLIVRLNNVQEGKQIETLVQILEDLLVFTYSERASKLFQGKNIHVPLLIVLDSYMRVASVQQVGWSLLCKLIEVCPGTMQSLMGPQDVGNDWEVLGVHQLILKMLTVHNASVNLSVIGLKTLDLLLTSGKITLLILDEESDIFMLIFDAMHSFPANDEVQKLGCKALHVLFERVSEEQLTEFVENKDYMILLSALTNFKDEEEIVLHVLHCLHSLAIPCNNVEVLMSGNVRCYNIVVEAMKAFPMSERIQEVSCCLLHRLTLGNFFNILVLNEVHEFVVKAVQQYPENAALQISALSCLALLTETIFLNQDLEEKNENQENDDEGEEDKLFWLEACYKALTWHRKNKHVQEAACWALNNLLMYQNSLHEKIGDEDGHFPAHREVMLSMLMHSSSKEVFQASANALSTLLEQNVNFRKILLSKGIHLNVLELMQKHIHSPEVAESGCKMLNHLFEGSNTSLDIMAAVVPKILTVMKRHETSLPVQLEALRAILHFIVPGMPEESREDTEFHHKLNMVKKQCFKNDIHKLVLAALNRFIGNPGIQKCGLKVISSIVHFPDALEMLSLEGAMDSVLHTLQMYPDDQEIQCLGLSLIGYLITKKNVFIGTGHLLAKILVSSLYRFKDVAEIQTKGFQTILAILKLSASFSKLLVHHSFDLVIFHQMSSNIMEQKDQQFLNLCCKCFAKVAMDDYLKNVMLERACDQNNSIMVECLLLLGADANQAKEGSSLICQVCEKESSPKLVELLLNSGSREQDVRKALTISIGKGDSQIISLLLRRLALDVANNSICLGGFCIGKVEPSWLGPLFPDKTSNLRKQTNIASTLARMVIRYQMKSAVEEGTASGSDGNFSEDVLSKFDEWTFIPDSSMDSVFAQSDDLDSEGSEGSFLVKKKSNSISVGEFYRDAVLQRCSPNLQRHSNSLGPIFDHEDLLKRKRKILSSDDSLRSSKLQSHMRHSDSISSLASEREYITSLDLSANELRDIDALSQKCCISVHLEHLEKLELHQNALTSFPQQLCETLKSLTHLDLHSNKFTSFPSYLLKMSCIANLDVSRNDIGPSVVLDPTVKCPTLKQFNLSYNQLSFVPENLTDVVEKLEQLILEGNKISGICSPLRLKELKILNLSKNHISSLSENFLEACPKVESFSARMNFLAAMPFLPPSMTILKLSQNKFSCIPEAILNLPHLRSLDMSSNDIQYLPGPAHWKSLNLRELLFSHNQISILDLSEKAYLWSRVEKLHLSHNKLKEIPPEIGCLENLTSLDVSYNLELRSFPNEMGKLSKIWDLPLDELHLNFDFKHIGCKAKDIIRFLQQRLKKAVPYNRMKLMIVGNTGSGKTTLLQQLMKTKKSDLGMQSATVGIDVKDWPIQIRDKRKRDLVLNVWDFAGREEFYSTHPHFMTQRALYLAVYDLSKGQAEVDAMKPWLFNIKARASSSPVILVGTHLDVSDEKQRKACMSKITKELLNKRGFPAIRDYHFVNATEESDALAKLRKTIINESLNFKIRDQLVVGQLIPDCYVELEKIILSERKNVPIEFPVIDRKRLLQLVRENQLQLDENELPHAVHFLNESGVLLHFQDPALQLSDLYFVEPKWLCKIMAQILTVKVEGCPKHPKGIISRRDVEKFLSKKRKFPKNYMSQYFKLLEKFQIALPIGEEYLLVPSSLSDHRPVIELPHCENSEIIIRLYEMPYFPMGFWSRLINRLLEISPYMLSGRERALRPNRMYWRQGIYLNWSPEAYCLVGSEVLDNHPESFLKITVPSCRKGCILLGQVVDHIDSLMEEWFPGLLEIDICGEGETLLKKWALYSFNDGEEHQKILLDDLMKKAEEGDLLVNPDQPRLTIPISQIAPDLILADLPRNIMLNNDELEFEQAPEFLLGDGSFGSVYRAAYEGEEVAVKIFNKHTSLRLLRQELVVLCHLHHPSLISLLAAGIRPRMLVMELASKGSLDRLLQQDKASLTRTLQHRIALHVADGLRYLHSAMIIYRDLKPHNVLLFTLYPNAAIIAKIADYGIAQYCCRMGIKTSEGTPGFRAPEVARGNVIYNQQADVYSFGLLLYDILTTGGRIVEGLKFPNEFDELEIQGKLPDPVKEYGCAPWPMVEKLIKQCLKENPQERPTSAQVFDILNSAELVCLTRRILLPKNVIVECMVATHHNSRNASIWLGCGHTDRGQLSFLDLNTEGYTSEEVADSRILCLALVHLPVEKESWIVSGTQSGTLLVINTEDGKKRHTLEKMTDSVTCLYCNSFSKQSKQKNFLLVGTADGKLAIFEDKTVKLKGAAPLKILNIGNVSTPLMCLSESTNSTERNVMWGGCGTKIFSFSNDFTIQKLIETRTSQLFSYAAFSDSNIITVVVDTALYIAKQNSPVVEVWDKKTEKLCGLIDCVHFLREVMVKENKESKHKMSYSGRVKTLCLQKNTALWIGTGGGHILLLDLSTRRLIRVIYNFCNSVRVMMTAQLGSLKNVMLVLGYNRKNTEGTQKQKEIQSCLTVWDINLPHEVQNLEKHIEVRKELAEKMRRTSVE

Row | effect of a mutation on the interaction | Variant
1 | disrupting interaction | MAAAVGRLLRASVARHVSAIPWGISATAALRPAACGRTSLTNLLCSGSSQAKLFSTSSSCHAPAVTQHAPYFKGTAVVNGEFKDLSLDDFKGKYLVLFFYPLDFTFVCPTEIVAFSDKANEFHDVNCEVVAVSVDSHFSHLAWINAPRKNGGLGHMNIALLSDLTKQISRDYGVLLEGSGLALRGLFIIDPNGVIKHLSVNDLPVGRSVEETLRLVKAFQYVETHGEVCPANWTPDSPTIKPSPAASKEYFQKVNQ [T146A]
